Measured values as given in US5210024A, “Isolation of strains of Saccharomyces cerevisiae having altered α-acetyltransferase activity” (priority 1991, dated 1993).
Ends that are not written are not given here.

Columns and labels:
[1] = target: T1, N^α -AT (AAA1 N^α -acetyltransferase) (Saccharomyces cerevisiae, UniProt P07347+P12945); assay: N^α-acetylation of synthetic peptides by AAA1 N^α-acetyltransferase ([3H]acetyl coenzyme A incorporation); format: biochemical; parameters: concentration or dose not given beside the values
T1 construct: isolates N^α -acetyltransferase by treating yeast cells with lyticase; endogenous in cells; host or cells: Saccharomyces cerevisiae cells (native enzyme)
T1 sequence (P12945 2-854): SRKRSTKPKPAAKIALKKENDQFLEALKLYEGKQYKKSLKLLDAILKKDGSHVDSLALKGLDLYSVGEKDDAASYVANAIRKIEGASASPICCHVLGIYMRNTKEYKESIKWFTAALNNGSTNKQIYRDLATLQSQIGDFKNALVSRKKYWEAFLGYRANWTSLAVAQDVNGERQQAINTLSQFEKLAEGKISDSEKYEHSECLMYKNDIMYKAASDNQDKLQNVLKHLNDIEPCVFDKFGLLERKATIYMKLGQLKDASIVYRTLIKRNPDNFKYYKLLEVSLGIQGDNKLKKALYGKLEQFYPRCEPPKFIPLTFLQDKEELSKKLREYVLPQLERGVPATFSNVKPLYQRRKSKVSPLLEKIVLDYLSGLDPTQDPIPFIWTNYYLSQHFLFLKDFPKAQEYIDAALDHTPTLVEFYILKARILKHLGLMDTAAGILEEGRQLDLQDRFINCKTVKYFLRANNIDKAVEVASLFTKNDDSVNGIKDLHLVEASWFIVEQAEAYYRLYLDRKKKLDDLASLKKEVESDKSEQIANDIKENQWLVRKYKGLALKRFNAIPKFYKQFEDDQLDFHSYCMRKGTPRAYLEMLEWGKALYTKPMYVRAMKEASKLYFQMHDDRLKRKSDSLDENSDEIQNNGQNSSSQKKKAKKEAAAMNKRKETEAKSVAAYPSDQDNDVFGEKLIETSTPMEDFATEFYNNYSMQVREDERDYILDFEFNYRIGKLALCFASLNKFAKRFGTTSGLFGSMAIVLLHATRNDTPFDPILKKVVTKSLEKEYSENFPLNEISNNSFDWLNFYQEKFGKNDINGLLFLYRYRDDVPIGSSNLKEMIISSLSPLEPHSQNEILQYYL
T1 sequence (P07347 1-238): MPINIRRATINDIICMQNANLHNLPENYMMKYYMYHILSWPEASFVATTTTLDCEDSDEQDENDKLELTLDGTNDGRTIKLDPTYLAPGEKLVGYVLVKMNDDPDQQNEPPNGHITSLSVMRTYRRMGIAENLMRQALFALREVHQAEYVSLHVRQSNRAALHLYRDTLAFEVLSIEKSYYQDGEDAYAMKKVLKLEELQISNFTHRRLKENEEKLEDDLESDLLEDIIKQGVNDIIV
Method: (§1) Aliquots of the lysate were added to 1.5 ml Eppendorf tubes containing a reaction mixture of 50 mM HEPES, pH 7.4, 150 mM KCl, 1 mM DTT, 25 μM[^3 H]acetyl coenzyme A (0.5 μCi) and 50 μM ACTH (1-24) with an adjusted final volume of 100 μl. The assay mixture was incubated at 30 C for 30 min. The reaction was stopped by adding 0.5 M acetic acid and chilled in an ice bath. […] The radioactivity in the control represented acetylation of endogenous compounds is subtracted from each sample determination. One unit of activity is defined as 1 pmol of acetyl residues incorporated into ACTH (1-24) under standard assay conditions.
(§2) This second N^α -acetyltransferase is a methionine N^α -acetyltransferase activity, and is designated as "M-N^α -AT." This second N^α -acetyltransferase is the subject of U.S. patent application of John A. Smith and Fang-Jen S. Lee, filed Oct. […] In order to compare the relative specificity and activity of the AAA1 N^α -acetyltransferase ("N^α -AT") of the present invention with the methionine N^α -acetyltransferase activity (M-N^α -AT) of U.S. patent application of John A. Smith and Fang-Jen S. Lee, filed Oct. […] These peptides were assessed for their ability to serve as substrates for the two enzymes. In Table 2, the effect of the amino terminal amino acid on activity is investigated; in Table 3, the effect of the penultimate amino terminal amino acid on activity is investigated.

[2] = target: T2, M-N^α -AT (methionine N^α -acetyltransferase) (Saccharomyces cerevisiae, UniProt Q06504); assay: N^α-acetylation of synthetic peptides by methionine N^α-acetyltransferase; format: biochemical; parameters: concentration or dose not given beside the values
T2 construct: endogenous in cells; host or cells: Saccharomyces cerevisiae aaa1 (AAA1-null) mutant
T2 sequence (Q06504 1-195): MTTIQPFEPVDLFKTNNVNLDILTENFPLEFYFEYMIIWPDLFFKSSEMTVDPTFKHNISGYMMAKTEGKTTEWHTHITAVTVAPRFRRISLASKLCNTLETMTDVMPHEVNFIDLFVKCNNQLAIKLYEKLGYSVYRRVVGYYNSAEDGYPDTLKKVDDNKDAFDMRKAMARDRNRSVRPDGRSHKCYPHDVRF
T2 sequence (Q12387 2-796 partner limits assumed): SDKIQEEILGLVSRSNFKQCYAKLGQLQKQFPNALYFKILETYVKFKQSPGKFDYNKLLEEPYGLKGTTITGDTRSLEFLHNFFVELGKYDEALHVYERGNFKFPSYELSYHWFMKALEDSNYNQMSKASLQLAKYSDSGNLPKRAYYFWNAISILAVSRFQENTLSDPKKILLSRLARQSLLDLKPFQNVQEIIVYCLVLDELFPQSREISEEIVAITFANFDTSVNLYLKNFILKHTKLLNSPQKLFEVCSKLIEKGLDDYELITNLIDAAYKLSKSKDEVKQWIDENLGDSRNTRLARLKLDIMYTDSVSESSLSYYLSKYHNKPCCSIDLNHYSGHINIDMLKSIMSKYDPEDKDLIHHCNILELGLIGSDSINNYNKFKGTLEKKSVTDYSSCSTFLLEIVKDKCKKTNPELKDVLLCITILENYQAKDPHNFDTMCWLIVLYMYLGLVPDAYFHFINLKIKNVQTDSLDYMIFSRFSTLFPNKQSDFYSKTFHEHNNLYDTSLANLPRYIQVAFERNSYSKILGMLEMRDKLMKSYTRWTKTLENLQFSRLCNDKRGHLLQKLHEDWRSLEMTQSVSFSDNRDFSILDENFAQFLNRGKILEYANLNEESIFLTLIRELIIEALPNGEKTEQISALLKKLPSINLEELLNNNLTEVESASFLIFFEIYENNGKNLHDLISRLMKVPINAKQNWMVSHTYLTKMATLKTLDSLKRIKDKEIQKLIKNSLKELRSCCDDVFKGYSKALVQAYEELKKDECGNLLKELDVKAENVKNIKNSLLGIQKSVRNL
Method: as §1, §2

[3] = Table 2: relative activity for N^α-acetylation of synthetic peptide substrate, influence of the amino terminal residue
[4] = Table 3: relative activity for N^α-acetylation of synthetic peptide substrate, influence of the penultimate amino terminal residue

AIPETQKGVIFYESHGKLEYKDIP (AIPETQKGVIFYESHGKLEYKDIP)
Activity (%) (mean activity ± S.D.) N^α -AT [1, 3]: 0% | Activity (%) (mean activity ± S.D.) M-N^α -AT [2, 3]: 0%

CIPETQKGVIFYESHGKLEYKDIP (CIPETQKGVIFYESHGKLEYKDIP)
Activity (%) (mean activity ± S.D.) N^α -AT [1, 3]: 0% | Activity (%) (mean activity ± S.D.) M-N^α -AT [2, 3]: 0%

DIPETQKGVIFYESHGKLEYKDIP (DIPETQKGVIFYESHGKLEYKDIP)
Activity (%) (mean activity ± S.D.) N^α -AT [1, 3]: 0% | Activity (%) (mean activity ± S.D.) M-N^α -AT [2, 3]: 0%

EIPETQKGVIFYESHGKLEYKDIP (EIPETQKGVIFYESHGKLEYKDIP)
Activity (%) (mean activity ± S.D.) N^α -AT [1, 3]: 0% | Activity (%) (mean activity ± S.D.) M-N^α -AT [2, 3]: 0%

FIPETQKGVIFYESHGKLEYKDIP (FIPETQKGVIFYESHGKLEYKDIP)
Activity (%) (mean activity ± S.D.) N^α -AT [1, 3]: 9 ± 2% | Activity (%) (mean activity ± S.D.) M-N^α -AT [2, 3]: 0%

GIPETQKGVIFYESHGKLEYKDIP (GIPETQKGVIFYESHGKLEYKDIP)
Activity (%) (mean activity ± S.D.) N^α -AT [1, 3]: 23 ± 3% | Activity (%) (mean activity ± S.D.) M-N^α -AT [2, 3]: 0%

HIPETQKGVIFYESHGKLEYKDIP (HIPETQKGVIFYESHGKLEYKDIP; also: tritium label)
Activity (%) (mean activity ± S.D.) N^α -AT [1, 3]: 19 ± 2% | Activity (%) (mean activity ± S.D.) M-N^α -AT [2, 3]: 0%

IIPETQKGVIFYESHGKLEYKDIP (IIPETQKGVIFYESHGKLEYKDIP)
Activity (%) (mean activity ± S.D.) N^α -AT [1, 3]: 0% | Activity (%) (mean activity ± S.D.) M-N^α -AT [2, 3]: 0%

KIPETQKGVIFYESHGKLEYKDIP (KIPETQKGVIFYESHGKLEYKDIP)
Activity (%) (mean activity ± S.D.) N^α -AT [1, 3]: 0% | Activity (%) (mean activity ± S.D.) M-N^α -AT [2, 3]: 0%

LIPETQKGVIFYESHGKLEYKDIP (LIPETQKGVIFYESHGKLEYKDIP)
Activity (%) (mean activity ± S.D.) N^α -AT [1, 3]: 0% | Activity (%) (mean activity ± S.D.) M-N^α -AT [2, 3]: 0%

MIPETQKGVIFYESHGKLEYKDIP (MIPETQKGVIFYESHGKLEYKDIP)
Activity (%) (mean activity ± S.D.) N^α -AT [1, 3]: 15 ± 2% | Activity (%) (mean activity ± S.D.) M-N^α -AT [2, 3]: 0%

NIPETQKGVIFYESHGKLEYKDIP (NIPETQKGVIFYESHGKLEYKDIP)
Activity (%) (mean activity ± S.D.) N^α -AT [1, 3]: 0% | Activity (%) (mean activity ± S.D.) M-N^α -AT [2, 3]: 0%

PIPETQKGVIFYESHGKLEYKDIP (PIPETQKGVIFYESHGKLEYKDIP)
Activity (%) (mean activity ± S.D.) N^α -AT [1, 3]: 70 ± 4% | Activity (%) (mean activity ± S.D.) M-N^α -AT [2, 3]: 0%

QIPETQKGVIFYESHGKLEYKDIP (QIPETQKGVIFYESHGKLEYKDIP)
Activity (%) (mean activity ± S.D.) N^α -AT [1, 3]: 0% | Activity (%) (mean activity ± S.D.) M-N^α -AT [2, 3]: 0%

RIPETQKGVIFYESHGKLEYKDIP (RIPETQKGVIFYESHGKLEYKDIP)
Activity (%) (mean activity ± S.D.) N^α -AT [1, 3]: 0% | Activity (%) (mean activity ± S.D.) M-N^α -AT [2, 3]: 0%

SAPETQKGVIFYESHGKLEYKDIP (SAPETQKGVIFYESHGKLEYKDIP)
Activity (%) (mean activity ± S.D.) N^α -AT [1, 4]: 168 ± 8% | Activity (%) (mean activity ± S.D.) M-N^α -AT [2, 4]: 0%

SCPETQKGVIFYESHGKLEYKDIP (SCPETQKGVIFYESHGKLEYKDIP)
Activity (%) (mean activity ± S.D.) N^α -AT [1, 4]: 136 ± 7% | Activity (%) (mean activity ± S.D.) M-N^α -AT [2, 4]: 0%

SDPETQKGVIFYESHGKLEYKDIP (SDPETQKGVIFYESHGKLEYKDIP)
Activity (%) (mean activity ± S.D.) N^α -AT [1, 4]: 171 ± 9% | Activity (%) (mean activity ± S.D.) M-N^α -AT [2, 4]: 0%

SEPETQKGVIFYESHGKLEYKDIP (SEPETQKGVIFYESHGKLEYKDIP)
Activity (%) (mean activity ± S.D.) N^α -AT [1, 4]: 121 ± 6% | Activity (%) (mean activity ± S.D.) M-N^α -AT [2, 4]: 0%

SFPETQKGVIFYESHGKLEYKDIP (SFPETQKGVIFYESHGKLEYKDIP)
Activity (%) (mean activity ± S.D.) N^α -AT [1, 4]: 118 ± 6% | Activity (%) (mean activity ± S.D.) M-N^α -AT [2, 4]: 0%

SGPETQKGVIFYESHGKLEYKDIP (SGPETQKGVIFYESHGKLEYKDIP)
Activity (%) (mean activity ± S.D.) N^α -AT [1, 4]: 84 ± 5% | Activity (%) (mean activity ± S.D.) M-N^α -AT [2, 4]: 0%

SHPETQKGVIFYESHGKLEYKDIP (SHPETQKGVIFYESHGKLEYKDIP)
Activity (%) (mean activity ± S.D.) N^α -AT [1, 4]: 125 ± 6% | Activity (%) (mean activity ± S.D.) M-N^α -AT [2, 4]: 0%

SKPETQKGVIFYESHGKLEYKDIP (SKPETQKGVIFYESHGKLEYKDIP)
Activity (%) (mean activity ± S.D.) N^α -AT [1, 4]: 151 ± 6% | Activity (%) (mean activity ± S.D.) M-N^α -AT [2, 4]: 0%

SLPETQKGVIFYESHGKLEYKDIP (SLPETQKGVIFYESHGKLEYKDIP)
Activity (%) (mean activity ± S.D.) N^α -AT [1, 4]: 126 ± 5% | Activity (%) (mean activity ± S.D.) M-N^α -AT [2, 4]: 0%

SMPETQKGVIFYESHGKLEYKDIP (SMPETQKGVIFYESHGKLEYKDIP)
Activity (%) (mean activity ± S.D.) N^α -AT [1, 4]: 140 ± 7% | Activity (%) (mean activity ± S.D.) M-N^α -AT [2, 4]: 0%

SNPETQKGVIFYESHGKLEYKDIP (SNPETQKGVIFYESHGKLEYKDIP)
Activity (%) (mean activity ± S.D.) N^α -AT [1, 4]: 116 ± 5% | Activity (%) (mean activity ± S.D.) M-N^α -AT [2, 4]: 0%

SPPETQKGVIFYESHGKLEYKDIP (SPPETQKGVIFYESHGKLEYKDIP)
Activity (%) (mean activity ± S.D.) N^α -AT [1, 4]: 0% | Activity (%) (mean activity ± S.D.) M-N^α -AT [2, 4]: 0%

SQPETQKGVIFYESHGKLEYKDIP (SQPETQKGVIFYESHGKLEYKDIP)
Activity (%) (mean activity ± S.D.) N^α -AT [1, 4]: 134 ± 7% | Activity (%) (mean activity ± S.D.) M-N^α -AT [2, 4]: 0%
